Assay: in vivo
Design: species or system mice
Conditions: male, NODSCID 1L2RγKO, mouse, iv, total radioactivity

O=C(O)CCC[C@H](NC(=O)N[C@@H](CCCCNC(=O)[C@H](Cc1c2ccccc2cc2ccccc12)NC(=O)[C@H]1CC[C@H](CNC(=O)CN2CCN(CC(=O)O)CCN(CC(=O)O)CCN(CC(=O)O)CC2)CC1)C(=O)O)C(=O)O [177Lu-HTK03149, metal not drawn]
tissue uptake at 1 h (Adrenal glands uptake): 0.35 ± 0.07 %ID/g
tissue uptake at 4 h (Adrenal glands uptake): 0.08 ± 0.01 %ID/g
tissue uptake at 24 h (Adrenal glands uptake): 0.07 ± 0.02 %ID/g
tissue uptake at 72 h (Adrenal glands uptake): 0.12 ± 0.05 %ID/g
tissue uptake at 120 h (Adrenal glands uptake): 0.02 ± 0.03 %ID/g
tissue uptake at 1 h (Blood uptake): 0.88 ± 0.07 %ID/g
tissue uptake at 4 h (Blood uptake): 0.17 ± 0.03 %ID/g
tissue uptake at 24 h (Blood uptake): 0.12 ± 0.01 %ID/g
tissue uptake at 72 h (Blood uptake): 0.07 ± 0.02 %ID/g
tissue uptake at 120 h (Blood uptake): 0.02 ± 0.01 %ID/g
tissue uptake at 1 h (Bone uptake): 0.07 ± 0.02 %ID/g
tissue uptake at 4 h (Bone uptake): 0.02 ± 0.01 %ID/g
tissue uptake at 24 h (Bone uptake): 0.03 %ID/g
tissue uptake at 72 h (Bone uptake): 0.03 ± 0.01 %ID/g
tissue uptake at 120 h (Bone uptake): 0.01 ± 0.01 %ID/g
tissue uptake at 1 h (Brain uptake): 0.02 %ID/g
tissue uptake at 4 h (Brain uptake): 0.01 %ID/g
tissue uptake at 24 h (Brain uptake): 0.01 %ID/g
tissue uptake at 1 h (Fat uptake): 0.14 ± 0.05 %ID/g
tissue uptake at 4 h (Fat uptake): 0.02 %ID/g
tissue uptake at 24 h (Fat uptake): 0.02 %ID/g
tissue uptake at 72 h (Fat uptake): 0.04 ± 0.04 %ID/g
tissue uptake at 120 h (Fat uptake): 0.01 ± 0.01 %ID/g
tissue uptake at 1 h (Heart uptake): 0.28 ± 0.04 %ID/g
tissue uptake at 4 h (Heart uptake): 0.07 ± 0.01 %ID/g
tissue uptake at 24 h (Heart uptake): 0.06 %ID/g
tissue uptake at 72 h (Heart uptake): 0.06 ± 0.01 %ID/g
tissue uptake at 120 h (Heart uptake): 0.03 ± 0.01 %ID/g
tissue uptake at 1 h (Intestine uptake): 0.27 ± 0.06 %ID/g
tissue uptake at 4 h (Intestine uptake): 0.19 ± 0.07 %ID/g
tissue uptake at 24 h (Intestine uptake): 0.09 ± 0.05 %ID/g
tissue uptake at 72 h (Intestine uptake): 0.09 ± 0.03 %ID/g
tissue uptake at 120 h (Intestine uptake): 0.31 ± 0.48 %ID/g
tissue uptake at 1 h (Kidneys uptake): 7.67 ± 1.35 %ID/g
tissue uptake at 4 h (Kidneys uptake): 1.67 ± 0.38 %ID/g
tissue uptake at 24 h (Kidneys uptake): 0.6 ± 0.11 %ID/g
tissue uptake at 72 h (Kidneys uptake): 0.68 ± 0.39 %ID/g
tissue uptake at 120 h (Kidneys uptake): 0.28 ± 0.06 %ID/g
tissue uptake at 1 h (Lacrimal uptake): 0.02 ± 0.01 %ID/g
tissue uptake at 4 h (Lacrimal uptake): 0.03 ± 0.01 %ID/g
tissue uptake at 72 h (Lacrimal uptake): 0.01 ± 0.01 %ID/g
tissue uptake at 1 h (Liver uptake): 0.26 ± 0.03 %ID/g
tissue uptake at 4 h (Liver uptake): 0.11 ± 0.01 %ID/g
tissue uptake at 24 h (Liver uptake): 0.1 ± 0.01 %ID/g
tissue uptake at 72 h (Liver uptake): 0.13 ± 0.03 %ID/g
tissue uptake at 120 h (Liver uptake): 0.08 ± 0.04 %ID/g
tissue uptake at 1 h (Lungs uptake): 0.72 ± 0.06 %ID/g
tissue uptake at 4 h (Lungs uptake): 0.17 ± 0.01 %ID/g
tissue uptake at 24 h (Lungs uptake): 0.12 ± 0.01 %ID/g
tissue uptake at 72 h (Lungs uptake): 0.11 ± 0.02 %ID/g
tissue uptake at 120 h (Lungs uptake): 0.09 ± 0.08 %ID/g
tissue uptake at 1 h (Muscle uptake): 0.18 ± 0.14 %ID/g
tissue uptake at 4 h (Muscle uptake): 0.02 ± 0.01 %ID/g
tissue uptake at 24 h (Muscle uptake): 0.02 %ID/g
tissue uptake at 72 h (Muscle uptake): 0.02 %ID/g
tissue uptake at 120 h (Muscle uptake): 0.01 %ID/g
tissue uptake at 1 h (Pancreas uptake): 0.17 ± 0.03 %ID/g
tissue uptake at 4 h (Pancreas uptake): 0.03 %ID/g
tissue uptake at 24 h (Pancreas uptake): 0.03 %ID/g
tissue uptake at 72 h (Pancreas uptake): 0.03 %ID/g
tissue uptake at 120 h (Pancreas uptake): 0.02 ± 0.01 %ID/g
tissue uptake at 1 h (Salivary uptake): 0.23 ± 0.06 %ID/g
tissue uptake at 4 h (Salivary uptake): 0.05 ± 0.01 %ID/g
tissue uptake at 24 h (Salivary uptake): 0.05 ± 0.01 %ID/g
tissue uptake at 72 h (Salivary uptake): 0.05 ± 0.02 %ID/g
tissue uptake at 120 h (Salivary uptake): 0.03 ± 0.01 %ID/g
tissue uptake at 1 h (Seminal uptake): 0.38 ± 0.47 %ID/g
tissue uptake at 4 h (Seminal uptake): 0.04 ± 0.03 %ID/g
tissue uptake at 24 h (Seminal uptake): 0.02 %ID/g
tissue uptake at 72 h (Seminal uptake): 0.03 ± 0.01 %ID/g
tissue uptake at 120 h (Seminal uptake): 0.01 %ID/g
tissue uptake at 1 h (Spleen uptake): 0.26 ± 0.05 %ID/g
tissue uptake at 4 h (Spleen uptake): 0.09 ± 0.02 %ID/g
tissue uptake at 24 h (Spleen uptake): 0.09 ± 0.01 %ID/g
tissue uptake at 72 h (Spleen uptake): 0.14 ± 0.06 %ID/g
tissue uptake at 120 h (Spleen uptake): 0.13 ± 0.08 %ID/g
tissue uptake at 1 h (Stomach uptake): 0.1 ± 0.02 %ID/g
tissue uptake at 4 h (Stomach uptake): 0.05 ± 0.02 %ID/g
tissue uptake at 24 h (Stomach uptake): 0.13 ± 0.11 %ID/g
tissue uptake at 72 h (Stomach uptake): 0.14 ± 0.1 %ID/g
tissue uptake at 120 h (Stomach uptake): 0.24 ± 0.31 %ID/g
tissue uptake at 1 h (Tail uptake): 0.52 ± 0.13 %ID/g
tissue uptake at 4 h (Tail uptake): 0.2 ± 0.14 %ID/g
tissue uptake at 24 h (Tail uptake): 0.14 ± 0.14 %ID/g
tissue uptake at 72 h (Tail uptake): 0.08 ± 0.02 %ID/g
tissue uptake at 120 h (Tail uptake): 0.04 ± 0.01 %ID/g
tissue uptake at 1 h (Testes uptake): 0.26 ± 0.02 %ID/g
tissue uptake at 4 h (Testes uptake): 0.06 %ID/g
tissue uptake at 24 h (Testes uptake): 0.05 %ID/g
tissue uptake at 72 h (Testes uptake): 0.05 ± 0.01 %ID/g
tissue uptake at 120 h (Testes uptake): 0.03 ± 0.01 %ID/g
tissue uptake at 1 h (Thyroid uptake): 0.27 ± 0.02 %ID/g
tissue uptake at 4 h (Thyroid uptake): 0.07 ± 0.01 %ID/g
tissue uptake at 24 h (Thyroid uptake): 0.06 %ID/g
tissue uptake at 72 h (Thyroid uptake): 0.08 ± 0.01 %ID/g
tissue uptake at 120 h (Thyroid uptake): 0.04 ± 0.01 %ID/g
tissue uptake at 1 h (Tumor uptake): 14 ± 2.16 %ID/g
tissue uptake at 4 h (Tumor uptake): 20.9 ± 2.99 %ID/g
tissue uptake at 24 h (Tumor uptake): 13.8 ± 2.88 %ID/g
tissue uptake at 72 h (Tumor uptake): 17.1 ± 4.7 %ID/g
tissue uptake at 120 h (Tumor uptake): 16.4 ± 11 %ID/g
